From publication PMC12931234, “Allosteric Modulation of Pathological Ataxin‐3 Aggregation: A Path to Spinocerebellar Ataxia Type‐3 Therapies” (Advanced Science, 2025)

Molecular target: the molecule itself
Assay: thioflavin T fluorescence aggregation assay; 5 µM protein (monomer peak from Superose 12), 30 µM ThT, 37 °C, 20 mM HEPES pH 7.5, 150 mM NaCl, 1 mM DTT; without or with CLR01 or CLR03; amyloid self-assembly

B1: Truncated ataxin-3 variant comprising the N-terminal globular Josephin domain (Atx3 JD) (domain or fragment, human, UniProt P54252-2 1-180, looked up)
chain: MESIFHEKQEGSLCAQHCLNNLLQGEYFSPVELSSIAHQLDEEERMRMAEGGVTSEDYRTFLQQPSGNMDDSGFFSIQVISNALKVWGLELILFNSPEYQRLRIDPINERSFICNYKEHWFTVRKLGKQWFNLNSLLTGPELISDTYLALFLAQLQQEGYSIFVVKGDLPDCEADQLLQM
notes: Ataxin-3 (Atx3), human, UniProt P54252-2, N-terminal globular Josephin domain; printed MW 23 767.87 Da; The text names residues up to R182; NMR models of JD: PDB 1YZB and 2AGA (cited); also called isolated JD; not shown: His6, N-terminal, kept
B1: binds.
